The values below come from article PMC12442453 (2025).

By EC50 is commonly meant the concentration that produces a half-maximal response.

For the assay, the target named is T1, human EPOR ectodomain (ECD) fused to a human Fc domain (EPOR-Fc) (human, UniProt P19235 25-250).
T1 chain: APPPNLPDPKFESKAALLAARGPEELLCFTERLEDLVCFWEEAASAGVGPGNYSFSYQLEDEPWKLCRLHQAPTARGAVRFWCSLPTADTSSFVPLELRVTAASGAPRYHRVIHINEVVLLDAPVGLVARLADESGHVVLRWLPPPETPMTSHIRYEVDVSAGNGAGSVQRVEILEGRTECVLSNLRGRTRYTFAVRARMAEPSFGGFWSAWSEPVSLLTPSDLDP
The experiment in a line: ELISA.

B1: Db-Fc 1.1 (Fc fusion)
chain 1: EVQLVESGGGLVQPGGSLRLSCAASGFNLRSYYMHWVRQAPGKGLEWVASISPYYSYTYYADSVKGRFTISADTSKNTAYLQMNSLRAEDTAVYYCARHGYGAMDYWGQGTLVTVSS
chain 2: DIQMTQSPSSLSASVGDRVTITCRASQSVSSAVAWYQQKPGKAPKLLIYSASSLYSGVPSRFSGSRSGTDFTLTISSLQPEDFATYYCQQSSYSLITFGQGTKVEIK
B1 had an EC50 of 900 pM.
